From US20150140683A1

What was measured:
[1] = molecular target: antibody captured on the human Fab capture surface (unnamed IgG); experiment: SPR (BIAcore), antibody captured via human Fab capture kit, 50 nM receptor injected, 25 C
[2] = molecular target: antibody captured on the human Fab capture surface (unnamed IgG); experiment: SPR (BIAcore), antibody captured via human Fab capture kit, 50 nM fusion polypeptide injected, 25 C

A response units [1] of 40 RU was found for “FcgammaRIIIaV158 (intact HisAvi-tag comprising functional variant of FcgRIIIa) (receptor)” in this work.

A response units [2] greater than 100 RU was found for “FcgammaRIIIaV158-Avi-IgA Protease-Fc LALA P329G fusion polypeptide (Fc fusion)” in this work.
